Results published in the supplement of paper PMC11246515.
± gives the standard deviation of the averaged measurements.

Test: total protein half-life in vivo (active degradation + dilution); higher = more stable protein
[1] = E. coli NCM3722 delta-clpP delta-lon delta-hslV, growth: N-lim chemostat, doubling time 6 h
[2] = E. coli NCM3722 delta-clpP, growth: N-lim chemostat, doubling time 6 h
[3] = E. coli NCM3722 delta-hslV, growth: N-lim chemostat, doubling time 6 h
[4] = E. coli NCM3722 delta-lon, growth: N-lim chemostat, doubling time 6 h
[5] = E. coli NCM3722 delta-smpB, growth: N-lim chemostat, doubling time 6 h
[6] = wild type E. coli NCM3722, growth: C-lim chemostat, doubling time 3 h
[7] = wild type E. coli NCM3722, growth: C-lim chemostat, doubling time 12 h
[8] = wild type E. coli NCM3722, growth: N-lim chemostat, doubling time 6 h
[9] = wild type E. coli NCM3722, growth: N-lim chemostat, doubling time 12 h
[10] = wild type E. coli NCM3722, growth: P-lim chemostat, doubling time 6 h
[11] = wild type E. coli NCM3722, growth: P-lim chemostat, doubling time 12 h
[12] = wild type E. coli NCM3722, growth: C-lim chemostat, doubling time 6 h

MPKIVILPHQDLCPDGAVLEANSGETILDAALRNGIEIEHACEKSCACTTCHCIVREGFDSLPESSEQEDDMLDKAWGLEPESRLSCQARVTDEDLVVEIPRYTINHAREH [P0A9R4]
total protein half-life in vivo [1]: 4.926 ± 0.026 h | total protein half-life in vivo [2]: 5.96 ± 1.3 h | total protein half-life in vivo [3]: 4.83 ± 0.91 h | total protein half-life in vivo [4]: 6.22 ± 1.6 h | total protein half-life in vivo [5]: 3.67 ± 0.56 h | total protein half-life in vivo [6]: 3.16 ± 0.84 h | total protein half-life in vivo [7]: 6.59 ± 0.084 h | total protein half-life in vivo [8]: 4.05 ± 0.7 h | total protein half-life in vivo [9]: 8.81 ± 2.2 h | total protein half-life in vivo [10]: 5.22 ± 0.39 h | total protein half-life in vivo [11]: 10.8 ± 0.6 h

MPLHNLTRFPRLEFIGAPTPLEYLPRFSDYLGREIFIKRDDVTPMAMGGNKLRKLEFLAADALREGADTLITAGAIQSNHVRQTAAVAAKLGLHCVALLENPIGTTAENYLTNGNRLLLDLFNTQIEMCDALTDPNAQLEELATRVEAQGFRPYVIPVGGSNALGALGYVESALEIAQQCEGAVNISSVVVASGSAGTHAGLAVGLEHLMPESELIGVTVSRSVADQLPKVVNLQQAIAKELELTASAEILLWDDYFAPGYGVPNDEGMEAVKLLARLEGILLDPVYTGKAMAGLIDGISQKRFKDEGPILFIHTGGAPALFAYHPHV
total protein half-life in vivo [2]: 5.78 ± 0.85 h | total protein half-life in vivo [3]: 5.5 ± 0.72 h | total protein half-life in vivo [4]: 6.76 ± 0.46 h | total protein half-life in vivo [5]: 5.72 ± 0.2 h | total protein half-life in vivo [6]: 3.17 ± 0.16 h | total protein half-life in vivo [12]: 5.52 ± 0.73 h | total protein half-life in vivo [8]: 5.78 ± 0.087 h | total protein half-life in vivo [9]: 11.6 ± 0.43 h | total protein half-life in vivo [10]: 5.91 ± 0.16 h | total protein half-life in vivo [11]: 12.259 ± 0.0094 h

MPLLDSFTVDHTRMEAPAVRVAKTMNTPHGDAITVFDLRFCVPNKEVMPERGIHTLEHLFAGFMRNHLNGNGVEIIDISPMGCRTGFYMSLIGTPDEQRVADAWKAAMEDVLKVQDQNQIPELNVYQCGTYQMHSLQEAQDIARSILERDVRINSNEELALPKEKLQELHI
total protein half-life in vivo [1]: 5.42 ± 0.74 h | total protein half-life in vivo [2]: 4.79 ± 0.64 h | total protein half-life in vivo [3]: 4.37 ± 0.6 h | total protein half-life in vivo [4]: 4.38 ± 0.28 h | total protein half-life in vivo [5]: 3.97 ± 0.12 h | total protein half-life in vivo [6]: 2.71 ± 0.32 h | total protein half-life in vivo [12]: 4.05 ± 0.31 h | total protein half-life in vivo [7]: 7.07 ± 0.68 h | total protein half-life in vivo [8]: 3.61 ± 0.1 h | total protein half-life in vivo [9]: 5.61 ± 0.47 h | total protein half-life in vivo [10]: 4.72 ± 0.19 h | total protein half-life in vivo [11]: 9.47 ± 0.63 h

MPLSAQQLAAQKNLSYVLAEKLAQRILKGEYEPGTILPGEIELGEQFGVSRTAVREAVKTLTAKGMVLPRPRIGTRVMPQSNWNFLDQELLTWWMTEENFHQVIDHFLVMRICLEPQACLLAATVGTAEQKAHLNTLMAEMAALKENFRRERWIEVDMAWHEHIYEMSANPFLTSFASLFHSVYHTYFTSITSDTVIKLDLHQAIVDAIIQSDGDAAFKACQALLRSPDK
total protein half-life in vivo [1]: 4.46 ± 0.8 h | total protein half-life in vivo [2]: 6.01 h | total protein half-life in vivo [3]: 5.31 h | total protein half-life in vivo [4]: 6.07 ± 0.2 h | total protein half-life in vivo [5]: 5.77 ± 0.38 h | total protein half-life in vivo [6]: 2.88 h | total protein half-life in vivo [12]: 6.4 ± 1.1 h | total protein half-life in vivo [7]: 12.2 h | total protein half-life in vivo [8]: 3 h | total protein half-life in vivo [9]: 10.5 h | total protein half-life in vivo [10]: 4.72 ± 1.2 h | total protein half-life in vivo [11]: 11.4 ± 0.35 h

MPLSPYLSFAGNCSDAIAYYQRTLGAELLYKISFGEMPKSAQDSAENCPSGMQFPDTAIAHANVRIAGSDIMMSDAMPSGKASYSGFTLVLDSQQVEEGKRWFDNLAANGKIEMAWQETFWAHGFGKVTDKFGVPWMINVVKQQPTQ
total protein half-life in vivo [1]: 4.69 ± 0.16 h | total protein half-life in vivo [2]: 4.35 ± 0.15 h | total protein half-life in vivo [3]: 5.15 ± 1.1 h | total protein half-life in vivo [4]: 6.806 ± 0.035 h | total protein half-life in vivo [5]: 4.57 ± 0.27 h | total protein half-life in vivo [6]: 3.13 ± 0.35 h | total protein half-life in vivo [12]: 5.29 ± 0.48 h | total protein half-life in vivo [7]: 10.04 ± 0.096 h | total protein half-life in vivo [8]: 4.31 ± 0.37 h | total protein half-life in vivo [9]: 8.56 ± 1.2 h | total protein half-life in vivo [10]: 5.88 ± 0.59 h | total protein half-life in vivo [11]: 12.4 ± 0.98 h

MPRANEIKKGMVLNYNGKLLLVKDIDIQSPTARGAATLYKMRFSDVRTGLKVEERFKGDDIVDTVTLTRRYVDFSYVDGNEYVFMDKEDYTPYTFTKDQIEEELLFMPEGGMPDMQVLTWDGQLLALELPQTVDLEIVETAPGIKGASASARNKPATLSTGLVIQVPEYLSPGEKIRIHIEERRYMGRAD [P0A6N8]
total protein half-life in vivo [1]: 5.17 ± 0.42 h | total protein half-life in vivo [2]: 4.37 ± 0.34 h | total protein half-life in vivo [3]: 4.21 ± 0.071 h | total protein half-life in vivo [4]: 5.35 ± 0.38 h | total protein half-life in vivo [5]: 4.45 ± 0.71 h | total protein half-life in vivo [6]: 3.25 ± 0.46 h | total protein half-life in vivo [12]: 5.42 ± 0.098 h | total protein half-life in vivo [7]: 11.1 ± 0.96 h | total protein half-life in vivo [8]: 4.59 ± 0.062 h | total protein half-life in vivo [9]: 6.944 ± 0.044 h | total protein half-life in vivo [10]: 5.26 ± 0.26 h | total protein half-life in vivo [11]: 9.67 ± 0.66 h

MPRFFTRHAATLFFPMALILYDFAAYLSTDLIQPGIINVVRDFNADVSLAPAAVSLYLAGGMALQWLLGPLSDRIGRRPVLITGALIFTLACAATMFTTSMTQFLIARAIQGTSICFIATVGYVTVQEAFGQTKGIKLMAIITSIVLIAPIIGPLSGAALMHFMHWKVLFAIIAVMGFISFVGLLLAMPETVKRGAVPFSAKSVLRDFRNVFCNRLFLFGAATISLSYIPMMSWVAVSPVILIDAGSLTTSQFAWTQVPVFGAVIVANAIVARFVKDPTEPRFIWRAVPIQLVGLSLLIVGNLLSPHVWLWSVLGTSLYAFGIGLIFPTLFRFTLFSNKLPKGTVSASLNMVILMVMSVSVEIGRWLWFNGGRLPFHLLAVVAGVIVVFTLAGLLNRVRQHQAAELVEEQ
total protein half-life in vivo [2]: 7.03 h

MPSAHSVKLRPLEREDLRYVHQLDNNASVMRYWFEEPYEAFVELSDLYDKHIHDQSERRFVVECDGEKAGLVELVEINHVHRRAEFQIIISPEYQGKGLATRAAKLAMDYGFTVLNLYKLYLIVDKENEKAIHIYRKLGFSVEGELMHEFFINGQYRNAIRMCIFQHQYLAEHKTPGQTLLKPTAQ [P0A951]
total protein half-life in vivo [1]: 5.494 ± 0.021 h | total protein half-life in vivo [2]: 6.01 ± 1.7 h | total protein half-life in vivo [3]: 5.04 ± 1.1 h | total protein half-life in vivo [5]: 5.16 ± 0.071 h | total protein half-life in vivo [6]: 2.7 ± 0.18 h | total protein half-life in vivo [12]: 5.17 ± 0.15 h | total protein half-life in vivo [7]: 10.5 ± 0.81 h | total protein half-life in vivo [8]: 4.92 ± 0.18 h | total protein half-life in vivo [9]: 9.78 ± 1.9 h | total protein half-life in vivo [10]: 5.06 ± 0.2 h | total protein half-life in vivo [11]: 11.6 ± 0.61 h

MPSFDIVSEVDLQEARNAVDNASREVESRFDFRNVEASFELNDASKTIKVLSESDFQVNQLLDILRAKLLKRGIEGSSLDVPENIVHSGKTWFVEAKLKQGIESATQKKIVKMIKDSKLKVQAQIQGDEIRVTGKSRDDLQAVMAMVRGGDLGQPFQFKNFRD [P0A8E7]
total protein half-life in vivo [1]: 6.17 ± 0.16 h | total protein half-life in vivo [2]: 6.38 ± 1 h | total protein half-life in vivo [3]: 5.06 ± 0.27 h | total protein half-life in vivo [4]: 6.83 ± 0.4 h | total protein half-life in vivo [5]: 5.85 ± 0.38 h | total protein half-life in vivo [6]: 3.18 ± 0.28 h | total protein half-life in vivo [12]: 6.22 ± 1.1 h | total protein half-life in vivo [7]: 10.7 ± 0.25 h | total protein half-life in vivo [8]: 4.32 ± 0.57 h | total protein half-life in vivo [9]: 8.82 ± 1 h | total protein half-life in vivo [10]: 5.06 ± 1.4 h | total protein half-life in vivo [11]: 12.7 ± 1.6 h
